# Measured values: the DeepSol protein solubility set
# Test: soluble on expression in E. coli; label from the status in PepcDB or PDB records
row,Sequence,soluble on expression in E. coli
1,MSLVKIVDVAKAANVSPAVVSRILSNDSKLVVREETRARVQQAIEALGYTPNLQARGLRLSRSNTLAMIVPELNSPVFPVIIQGAQRAAWERGYSLLVGGMGGEEEDPKVAGRLLRSNRIDGLLVTTGRHEAQMLQELATLNAPFVLVNRYLDDQHPYVELDERGAAAAITRHFIELGHRRIAFLGGLQRRVGERRVAGYADALAEAGLPWVPQLVVDAGYYKPGGEDGLRQLLALDEPPTAVVATNEIVAAGAMAAAHRQGVRIPRDLSIASFSDGIVAELLSPALTAVRFPLERMGYLATAMLVDIVEGRGAPQAGLCLPHESVVVRDSTARPPGRKARAATREGHHHHHH,not soluble
2,MSLVMSGEKMKVIIVEDEFLAQQELSWLINTHSQMEIVGSFDDGLDVLKFLQHNKVDAIFLDINIPSLDGVLLAQNISQFAHKPFIVFITAWKEHAVEAFELEAFDYILKPYQESRIINMLQKLTTAWEQQNNAASGLASAAPRENDTINLIKDERIIVTSIHDIYYAEAHEKMTFVYTRRESFVMPMNITEEGHHHHHH,not soluble
3,MSLVSIKDIARYCGVSAMTVSRALNNSDDIAEATKEKILKVCEELKYKPNSAAKSLITKKTNMIGLIIPDIANQYYANISKGVSSYIEKHGYGLILCNSNRKKPNEVKYLDFLSEGRVDGIIILPVKPRKEDYEDISRQIPMVMADNFAKGLEVNFVGIDNYAGAIKIITHMVNQGYKKIGVILGDKDSTASSERLNGYKKVLEDKGISYNEDIVIHSNSTFEDGFNIASILIEKGVDSIFAINDTVAMGVIKYCYEKGIKLPEELGLAGYDNIEQAAMLTIPLTTVDQDNKKIGTIAAKMLVDAIKGNAKKTEKIILEPTLVIRKSCGEEGHHHHHH,soluble
4,MSLVTIKEIASAVGVSSATVSRVLNYDPTLSISTRKRQAIIETAEALNYATPRNRNRAAAQAVGSGLKIALVHFLDPAQELADPYYVGVRLGIESRCQALNSDVVKVFLTGNTPEATILEGASGVVAVGHYYGDELEWLRRHSRHLVFADYAPAGDMEDTVLSDVSQAMIRLLEAVHAMGYRRIGFIGWIDAFYGPDNIHSERRCHTYIDWMTKTGLFDPELCLVDPMTPDSGYRLAKAMLSKPNPPKILITCNDNMALGAYRAINEMGLRIPDDVAVASFNDIPVAQFLGPPLSTVKIPAELIGETAVDLLVERLSGREVAKKVVFGTEIIWRASTEGHHHHHH,soluble
5,MSLYDNDLWFATINLPYRQKLELLRIYKTSDEILYNFKNSELIQKYKFDIEKINYIKDEMKKSGMKIVFWNDDDYPKVLKNYDDMPYGLFYMGNIKKLNELNYNVAIVGSRRCTQYGKDITTIISREISINGIGIISGMARGIDTYAHKICLENNGYTCAVLGCGADVIYPKENKNLYCQIIRNGCIISQYKPNTKPLPYNFPIRNKIISGLSNLVLVTEADIKSGSIITASSALEQGKDVGAVPGSVFSKMSRGTNKLIQDGAHVIKDIDDVFGILNFQKINFKKIRNNSSYSSMPENQRQIYDLVSDKPIHVDDIKRCLNIDIQELYELLFEMQLKNKILCLSGSYYVRVNDCLEGHHHHHH,soluble
6,MSLYFNKVLGMKEFGKDEKVFYRVAIRAIILQGDKILMVKSNTGDYKFPGGGVEKGETPEETLRREVQEETGYILNEVKEKFGVLIERDRRRRMGCTIFEMTSHYYLCSVIEERGEQHLDKYEEELGFTPIWISLDEVIRENENILNQREKINPWVKRETFVLKKIKEYLNENEGHHHHHH,soluble
7,MSLYISYSPLRITFGGGGTDVEPFLSKHGGAVVNATIDRGVSVRYIEDEFQLELSSRDFVRSYIVNMHRAASVTKMMADFLSEAGITNGRVIMSGDAPPGSGLGSSSSAVSALMNLVNSIRGRTVDPATLAEESYNLERNHFHVVLGKQDPYAIAYGGFKYMEFGADGVKREDLGQYSEFTTELQRRILLVYTGKTRQSSEVLMEQVKASEMGDEKTDRNLLQMKDVARRLRDAVVKNDMDEFAHQINRGWEIKKSLSSRITNDHIDRIIALALSNGAQAARLMGGGSQGFVLVMCKPENLNYIQRRMMSISNFVVRTSFDMKGTRMIGHEGHHHHHH,not soluble
8,MSLYKIITSDLDETLLRQDGSISSANVAAIAAASKRGVKFVPNTGRSFLSIQPLLKTLNLYQRPNEYVVSYNGGVVVENQDNRVIVSNEMPYEEAAKAFAIMSEFDVDIHIYTLDHLFIYRPRADDRAYLQTRGVTFTEMTGAFDQFRNAQIMKVIVMNPDVMVRQQVYAAIKAAFTEINCTYSSGIYMEVNHAGVDKGRAILDLGDKLGIKADEIMAIGDNANDLGMLTKVGLPVSVANGIDDVKQVAKFVTPHDYERGVADAIETFILEGHHHHHH,soluble
9,MSLYKLIALDMDGTLLNDDKIISKRNKEAIKKAKNLGYKVVLSTGRPLKGVERYLKELDLVNDDDYAIAFNGGLVQNTKTGEVLGKELMKFEDLDRLYKLSQKFNVNIHMLSINECITPKKNPYTEVEVNINQIPLIEKNFNELPHDTVIVKIMMIDSKEKLDKVEKLLPKEIYDDYSVARSSDIFLEFSPKGVHKGVGLKILSEHLNLKKEELIAVGDAGNDIAMIEYAGLGVAMGNAFPYVKESADYVTDNNETHGVAKVIEKFMLNEGHHHHHH,soluble
10,MSLYKVLALDLDGTVLSDDHTIHPQVKDAIRAAQQHCHVLIVTGRHHTAARPYYDELGLTTPIICCNGTYVYDYASETVLEHNAIDKQDALTFIDLAQEFQLKLVMYIKDAMTYSQRSPIAYMQALEKWAQAASLTHPPQIYAIDSFHQTARDSEFVWKFVVEGLPSSVERLLEHPWVNAHFNGERSWSNRIDFAAKGNSKGLRLAQYVAQLGYAANHVMAIGDNHNDISMLRYAGHGVAMANADDTVKSYARSLCSTDNNHAGLAQLIREHIQGEGHHHHHH,soluble
11,MSLYKVTRGKSEQYLKDERALEDYLIATGLDDCAFKLANGEVRGGRDLLALVEDARAIRSTLHNLHSRYNRSVVEQAAIAGVLSPRITTDIATANEAAAYIARRLDALADEVERGWVGHFTEGEGFRFERTVRGVKEVAAIDDAMLGSADARKLDEYAAVLQEVYPRPGVLRRKEAETAIHGPISLFEAVTDAGRKGVALQRYKGLGEMNPSQLWETTLDTNARSLLQVKVREVDEADDIFTKLMGDVVEPRREFIQENSLHATVDVEGHHHHHH,soluble
12,MSLYVDAGLQPLDKNNKKLVQVHIPEGSSNKQIAAVLEESNVIKSGMVFNYYVKFKNLTDFQAGYYQMSPSMTLDEIGEMLKEGGTPEPTKIADGKVTIPEGYDIDKIGEAIEKNTDFKKADFIALMKNEDFFNQMKAKYPDLLESAATAEGVRYRLEGYLFPATYDYYKKATLPEFVEQMIAKMNTVMEQYTPTIHAKNLTNQQVLTLASLVEKEGVKEADRKQIAQVFFNRLAADMPIQSDISILYALGEHKETVTYADLEVDSSYNLYKNTGYGPGPLDSPSEESIKAVLNPTPSDYLYFVADISTGKVYFSKTYEEHQVLVDQYVNNSSSEEGHHHHHH,soluble
13,MSMKQAEFIQAKGYQARVTRTARAKTASIKVEEGMVSVVVPKALPIERIERILQEKHQWIIDKIALHKGLITSSEKQFVSGEAMPYLGRNYRLKVHAGSFEPVKLVQGRLVVIVPEGSVRSNLVREALIGWYKRSALLKLREKVRRYAKVIGVTPKSVNIKTFKSRWGSCNPKGDLDFNWIIVMAPNRIVDYVVVHELCHLKQLDHSPLFWKEVERVMPDYAECKEWLKNNAPKLTFLEHHHHHH,soluble
14,MSNDKSAEVVVLPRENDEESKEPVLKNQFDLSTFDIDSPEIDLTHTRADHIPDLTGFPKIEELRMRNNLLVSISPTISSLVTLTSLDLYENQLTEISHLESLVNLVSLDLSYNRIRQINGLDKLTKLETLYLVSNKIEKIENLEALTQLKLLELGDNRIKKIENIGHLVNLDELFIGKNKIRQLEGVETLQKLSVLSLPGNRIVKIENVEQLNNLKELYLSDQGLQDIHGVEPLTNLLLLDVANNEIKTFSGVERLESLNDFWANDNKVESFSEIEQLSKLKGLQTVYLERNPFYFNDTNQYRRKVMMTLTQVTQIDATTCRKPIE,not soluble
15,MSNEVEQKKNIKTINDLPGISQTVINKLIEAGYSSLETLAVASPQDLSVAAGIPLSTAQKIIKEARDALDIRFKTALEVKKERMNVKKISTGSQALDGLLAGGIETRTMTEFFGEFGSGKTQLCHQLSVNVQLPPEKGGLSGKAVYIDTEGTFRWERIENMAKALGLDIDNVMNNIYYIRAINTDHQIAIVDDLQELVSKDPSIKLIVVDSVTSHFRAEYPGRENLAVRQQKLNKHLHQLTRLAEVYDIAVIITNQVMARPDMFYGDPTVAVGGHTLYHVPGIRIQLKKSRGNRRIARVVDAPHLPEGEVVFALTEEGIRDAEE,soluble
16,MSNFISPVYEIKSIPIEKISPNDYNPNSVAPPEMKLLYDSIKSDGYTMPIVCYYDKEEDRYSIVDGFHRYRIMLDYSDIYERESGRLPVSVIDKSLDYRMASTIRHNRARGSHDVDLMSQIVKDLHECGRSDNWIAKHLGMDKDEILRLKQITGLASLFKDHEFNQSWEPEELLNE,soluble
17,MSNILIINGAKKFAHSNGQLNDTLTEVADGTLRDLGHDVRIVRADSDYNVKAEVQNFLWADVVIWQMPGWWMGAPWTVKKYIDDVFTEGHGTLYASDGRTRKDPSKKYGSGSLVQDKKYMLSLTWNAPMEAFTEKDQFFHGVGVDGVYLPFHKANQFLGMEPLPTFIANDVIKMPDVPRYTEEYRKHLVEIFG,not soluble
18,MSNINIRVAHEQDAEELHSIMQIAFTPLRELGIDWPSVHADLEMVKDNLRQNTTFVLENEKEIISTITVCYSWSSVKPISGYPFVWWFATRPTYDGQGYGSQLLKYAEETFLRDTLKAAAVTLGTSARLHPWLLNIYEKRGYEIYAKHENDDGDLGVIMRKILIPEQFNDDILGRPPF,not soluble
19,MSNITIYHNPACGTSRNTLEMIRNSGTEPTIILYLENPPSRDELVKLIADMGISVRALLRKNVEPYEQLGLAEDKFTDDQLIDFMLQHPILINRPIVVTPLGTRLCRPSEVVLDILQDAQKGAFTKEDGEKVVDEAGKRLK,soluble
20,MSNKDIRVVVGMSGGVDSSVTAYLLKEQGYDVIGIFMKNWDDTDENGVCTATEDYNDVIAVCNQIGIPYYAVNFEEQYWDKVFTYFLDEYKKGRTPNPDVMCNKEIKFKAFLEHALKLGADYVATGHYARIRRHDDGHVEMLRGVDNNKDQTYFLNQLSQEQLSKVMFPIGDIEKSEVRRIAEEQNLATAKKKDSTGICFIGERNFKEFLSHYLPAQSGEMLTLNGKKMGQHSGLMYYTIGQRHGLGIGGDGDPWFVVGKNLNDNVLYVEQGFHHDALYSDYLIASDYSFVNPSEIDLEKGFECTAKFRYRQKDTKVYVQRENENSIRVTFAEPVRAITPGQAVVFYNQEVCLGGATIDDVYKNEGQLSYVVLEHHHHHH,soluble
